Where a chain is given by its changes, count along the chain named.

These results are taken from patent EP4722241A1 (Jiksak Bioengineering, Inc., dated 2024).

For assay [1], the target named is T1, pan-hSYT2 (antigenic peptide for panning, Human SYT2 position 1-62) (human, lysine residue bound to biotin (position marked only in a picture of the sequence)).
T1 construct: Synthetic biotinylated peptide, immobilised on streptavidin biosensors in the Octet measurements; also called N-terminal domain of human Synaptotagmin 2
T1 peptide: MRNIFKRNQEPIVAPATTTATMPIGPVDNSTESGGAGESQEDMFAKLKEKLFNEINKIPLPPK
The assay is described as follows: BLI (Octet RED96e), biotinylated pan-hSYT2 on streptavidin biosensor, antigen loaded at 0.05 ug/mL. (BLI is a label-free optical method that tracks binding on a fibre tip over time.)

In assay [2] the target is T1, pan-hSYT2 (antigenic peptide for …). The assay is described as follows: BLI (Octet RED96e), same manner as Example 2, antigen loaded at 0.2 ug/mL.

B1: first monoclonal antibody according to the present invention (antibody, human IgG1, V domains shown)
VH: EVQLQESGAELVRPGASVKLSCKASGYTFTDYEMHWVKQTPVHGLEWIGAIDPETGGTAYNQKFKGKATLTADKSSSTAYMELRSLTSEDSAVYYCTRGNDGYNEDYWGQGTTLTVSS
VL: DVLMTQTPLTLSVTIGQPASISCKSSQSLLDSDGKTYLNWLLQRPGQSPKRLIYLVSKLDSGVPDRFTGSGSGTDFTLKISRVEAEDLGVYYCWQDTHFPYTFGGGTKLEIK
notes: Mouse VH and VL from a phage display scFv clone; also called first antibody; first anti-SYT2 antibody
With B1, in assay [1], the Kd came to 0.0267 nM, the koff was found to be 7.01e-06 s⁻¹ and the kon turned out to be 263000 M⁻¹ s⁻¹.

B2: second monoclonal antibody according to the present invention (antibody, human IgG1, V domains shown)
VH: B1 VH with E1Q, E6Q, T113S
VL: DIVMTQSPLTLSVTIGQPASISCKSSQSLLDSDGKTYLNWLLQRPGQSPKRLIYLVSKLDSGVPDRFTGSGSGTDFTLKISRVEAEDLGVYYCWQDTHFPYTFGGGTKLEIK
notes: also called second antibody; second anti-SYT2 antibody
For B2, the koff in assay [2] was determined as 1.35e-05 s⁻¹.

What is called Kd is the free concentration of one partner at which half of the binding sites on the other are occupied at equilibrium, for simple one-to-one binding. A higher Kd goes with a looser complex. Usually koff stands for the rate constant with which the complex falls apart. Read a low koff as a long-lived complex. For orientation: kon means the rate constant with which the complex forms. Low values mean slow association, high ones fast association.
